Test results from patent US20180094059A1 (UNIVERSITAT STUTTGART, published 2018).
Positions count from the first letter of the chain named. Read-outs that look alike come from different tables or passages of the source.

Assays:
[1] = target: T1, EGFR on EGFR-positive tumor cell lines (UniProt P00533 25-1210, limits assumed); assay: cell-based or functional assay
[2] = target: T1, EGFR on EGFR-positive tumor cell lines; assay: cell-based or functional assay; remark: listed apart in the source

B1: Db-Glyco-scTRAIL3-FAVSGAA (other)
chain: LEASDYKDDDDKGAEVQLVESGGGLVQPGGSLRLSCAASGFSLTNYGVHWVRQAPGKGLEWLGVIWSGGNTDYNTPFTSRFTISRDNSKNTLYLQMNSLRAEDTAVYYCARALTYYDYEFAYWGQGTTVTVSSGGGGSDIQLTQSPSFLSASVGDRVTITCRASQSIGTNIHWYQQKPGKAPKLLIKYASESISGVPSRFSGSGSGTEFTLTISSLQPEDFATYYCQQNNNWPTTFGAGTKLEIKRAAAGNGTSNGTSEFGGAAAHITGTRGRSNTLSSPNSKNEKALGRKINSWESSRSGHSFLSNLHLRNGELVIHEKGFYYIYSQTYFRFQEEIKENTKNDKQMVQYIYKYTSYPDPILLMKSARNSCWSKDAEYGLYSIYQGGIFELKENDRIFVSVTNEHLIDMDHEASFFGAFAVSGAAAHITGTRGRSNTLSSPNSKNEKALGRKINSWESSRSGHSFLSNLHLRNGELVIHEKGFYYIYSQTYFRFQEEIKENTKNDKQMVQYIYKYTSYPDPILLMKSARNSCWSKDAEYGLYSIYQGGIFELKENDRIFVSVTNEHLIDMDHEASFFGAFAVSGAAAHITGTRGRSNTLSSPNSKNEKALGRKINSWESSRSGHSFLSNLHLRNGELVIHEKGFYYIYSQTYFRFQEEIKENTKNDKQMVQYIYKYTSYPDPILLMKSARNSCWSKDAEYGLYSIYQGGIFELKENDRIFVSVTNEHLIDMDHEASFFGAFAVS
modifications: two N-glycosylation sites in the peptide AAAGNGTSNGTSEFGG, shown to be glycosylated
Question: Which results are given for B1?
Answer: EC50 of cell death induction, Colo205, with Bortezomib [1]: 0.033 nM; EC50 of cell death induction, Colo205, with Bortezomib + Cetuximab [1]: 0.074 nM; EC50 of cell death induction, HCT116, with Bortezomib [1]: 0.066 nM; EC50 of cell death induction, HCT116, with Bortezomib + Cetuximab [1]: 0.45 nM; EC50 of cell death induction, HT1080, with Bortezomib [1]: 0.001 nM; EC50 of cell death induction, HT1080, with Bortezomib + Cetuximab [1]: 0.01 nM

B2: Db-Glyco-scTRAIL3-FAVSGIA (other)
chain: B1 chain with A263I, A424I, A585I
modifications: glycosylated connecting peptide
Question: With B2 as the binder, how does the “EC50 of cell death induction, Colo205, with Bortezomib” value [1] read?
Answer: 0.019 nM

Question: And the “EC50 of cell death induction, Colo205, with Bortezomib + Cetuximab” value [1]?
Answer: 0.032 nM

Question: And the “EC50 of cell death induction, HCT116, with Bortezomib” value [1]?
Answer: 0.043 nM

Question: What about the “EC50 of cell death induction, HCT116, with Bortezomib + Cetuximab” value [1] of the same binder?
Answer: 0.161 nM

Question: What about the “EC50 of cell death induction, HT1080, with Bortezomib” value [1] of the same binder?
Answer: 0.0006 nM

Question: And the “EC50 of cell death induction, HT1080, with Bortezomib + Cetuximab” value [1]?
Answer: 0.005 nM

B3: Db8-Glyco-scTRAIL3-FAVSGAA (other)
chain: LEASDYKDDDDKGAEVQLVESGGGLVQPGGSLRLSCAASGFSLTNYGVHWVRQAPGKGLEWLGVIWSGGNTDYNTPFTSRFTISRDNSKNTLYLQMNSLRAEDTAVYYCARALTYYDYEFAYWGQGTTVTVSSGGGGSGGGDIQLTQSPSFLSASVGDRVTITCRASQSIGTNIHWYQQKPGKAPKLLIKYASESISGVPSRFSGSGSGTEFTLTISSLQPEDFATYYCQQNNNWPTTFGAGTKLEIKRAAAGNGTSNGTSEFGGAAAHITGTRGRSNTLSSPNSKNEKALGRKINSWESSRSGHSFLSNLHLRNGELVIHEKGFYYIYSQTYFRFQEEIKENTKNDKQMVQYIYKYTSYPDPILLMKSARNSCWSKDAEYGLYSIYQGGIFELKENDRIFVSVTNEHLIDMDHEASFFGAFAVSGAAAHITGTRGRSNTLSSPNSKNEKALGRKINSWESSRSGHSFLSNLHLRNGELVIHEKGFYYIYSQTYFRFQEEIKENTKNDKQMVQYIYKYTSYPDPILLMKSARNSCWSKDAEYGLYSIYQGGIFELKENDRIFVSVTNEHLIDMDHEASFFGAFAVSGAAAHITGTRGRSNTLSSPNSKNEKALGRKINSWESSRSGHSFLSNLHLRNGELVIHEKGFYYIYSQTYFRFQEEIKENTKNDKQMVQYIYKYTSYPDPILLMKSARNSCWSKDAEYGLYSIYQGGIFELKENDRIFVSVTNEHLIDMDHEASFFGAFAVS
modifications: glycosylated connecting peptide
Question: Which results are given for B3?
Answer: EC50 of cell death induction, Colo205, with Bortezomib [1]: 0.026 nM; EC50 of cell death induction, Colo205, with Bortezomib + Cetuximab [1]: 0.061 nM; EC50 of cell death induction, HCT116, with Bortezomib [1]: 0.051 nM; EC50 of cell death induction, HCT116, with Bortezomib + Cetuximab [1]: 0.3 nM; EC50 of cell death induction, HT1080, with Bortezomib [1]: 0.0009 nM; EC50 of cell death induction, HT1080, with Bortezomib + Cetuximab [1]: 0.007 nM

B4: Dbhu225-scTRAIL3-FLVGGGPQRVA (other, not shown: small tags and cut ends)
chain: DYKDDDDKGGGGSGTEVQLVESGGGLVQPGGSLRLSCAASGFSLTNYGVHWVRQAPGKGLEWLGVIWSGGNTDYNTPFTSRFTISRDNSKNTLYLQMNSLRAEDTAVYYCARALTYYDYEFAYWGQGTTVTVSSGGGGSDIQLTQSPSFLSASVGDRVTITCRASQSIGTNIHWYQQKPGKAPKLLIKYASESISGVPSRFSGSGSGTEFTLTISSLQPEDFATYYCQQNNNWPTTFGAGTKLEIKRAAAGGSGGGPQRVAAHITGTRGRSNTLSSPNSKNEKALGRKINSWESSRSGHSFLSNLHLRNGELVIHEKGFYYIYSQTYFRFQEEIKENTKNDKQMVQYIYKYTSYPDPILLMKSARNSCWSKDAEYGLYSIYQGGIFELKENDRIFVSVTNEHLIDMDHEASFFGAFLVGGGPQRVAAHITGTRGRSNTLSSPNSKNEKALGRKINSWESSRSGHSFLSNLHLRNGELVIHEKGFYYIYSQTYFRFQEEIKENTKNDKQMVQYIYKYTSYPDPILLMKSARNSCWSKDAEYGLYSIYQGGIFELKENDRIFVSVTNEHLIDMDHEASFFGAFLVGGGPQRVAAHITGTRGRSNTLSSPNSKNEKALGRKINSWESSRSGHSFLSNLHLRNGELVIHEKGFYYIYSQTYFRFQEEIKENTKNDKQMVQYIYKYTSYPDPILLMKSARNSCWSKDAEYGLYSIYQGGIFELKENDRIFVSVTNEHLIDMDHEASFFGAFLVG
Question: For B4, which “EC50 of cell death induction, Colo205, with Bortezomib” value [2] is on record?
Answer: 0.0038 nM

Question: And the “EC50 of cell death induction, Colo205, without bortezomib” value (“EC50 … Colo205, without bortezomib” for short) [2]?
Answer: 0.041 nM

Question: And the “EC50 of cell death induction, Colo205 in presence of Cetuximab, with bortezomib” value (“EC50 … of Cetuximab, with bortezomib” for short) [2]?
Answer: 0.0138 nM

Question: And the “EC50 of cell death induction, Colo205 in presence of Cetuximab, without bortezomib” value (shortened to “EC50 … of Cetuximab, without bortezomib”) [2]?
Answer: 0.102 nM

B5: dsDbhu225-scTRAIL3-FLVGGGPQRVA (other, not shown: small tags and cut ends)
chain: B4 chain with G59C, A239C
Question: Which “EC50 of cell death induction, Colo205, with Bortezomib” value [2] does the source give for B5 here?
Answer: 0.0025 nM

Question: What about the “EC50 … Colo205, without bortezomib” value [2] of the same binder?
Answer: 0.0212 nM

Question: What about the “EC50 … of Cetuximab, with bortezomib” value [2] of the same binder?
Answer: 0.0072 nM

Question: What about the “EC50 … of Cetuximab, without bortezomib” value [2] of the same binder?
Answer: 0.0423 nM

B6: scFvhu225-EHD2-scTRAIL3-FLVGGGPQRVA (other)
chain: DYKDDDDKGGGGSGTEVQLVESGGGLVQPGGSLRLSCAASGFSLTNYGVHWVRQAPGKGLEWLGVIWSGGNTDYNTPFTSRFTISRDNSKNTLYLQMNSLRAEDTAVYYCARALTYYDYEFAYWGQGTTVTVSSGGGGSGGGGSGGGGSDIQLTQSPSFLSASVGDRVTITCRASQSIGTNIHWYQQKPGKAPKLLIKYASESISGVPSRFSGSGSGTEFTLTISSLQPEDFATYYCQQNNNWPTTFGAGTKLEIKRAAAGGSGGDFTPPTVKILQSSCDGGGHFPPTIQLLCLVSGYTPGTINITWLEDGQVMDVDLSTASTTQEGELASTQSELTLSQKHWLSDRTYTCQVTYQGHTFEDSTKKCADSNGGSGGASSGGGPQRVAAHITGTRGRSNTLSSPNSKNEKALGRKINSWESSRSGHSFLSNLHLRNGELVIHEKGFYYIYSQTYFRFQEEIKENTKNDKQMVQYIYKYTSYPDPILLMKSARNSCWSKDAEYGLYSIYQGGIFELKENDRIFVSVTNEHLIDMDHEASFFGAFLVGGGPQRVAAHITGTRGRSNTLSSPNSKNEKALGRKINSWESSRSGHSFLSNLHLRNGELVIHEKGFYYIYSQTYFRFQEEIKENTKNDKQMVQYIYKYTSYPDPILLMKSARNSCWSKDAEYGLYSIYQGGIFELKENDRIFVSVTNEHLIDMDHEASFFGAFLVGGGPQRVAAHITGTRGRSNTLSSPNSKNEKALGRKINSWESSRSGHSFLSNLHLRNGELVIHEKGFYYIYSQTYFRFQEEIKENTKNDKQMVQYIYKYTSYPDPILLMKSARNSCWSKDAEYGLYSIYQGGIFELKENDRIFVSVTNEHLIDMDHEASFFGAFLVG
Question: B6 was tested. Which “EC50 of cell death induction, Colo205, with Bortezomib” value [2] did it give?
Answer: 0.0018 nM

Question: And the “EC50 … Colo205, without bortezomib” value [2]?
Answer: 0.0119 nM

Question: What about the “EC50 … of Cetuximab, with bortezomib” value [2] of the same binder?
Answer: 0.0067 nM

Question: And the “EC50 … of Cetuximab, without bortezomib” value [2]?
Answer: 0.0693 nM
